We go through 2 substances from PMC9508154.

The target in this assay is eIF5-CTD_(-CTT)-EE, phosphomimetic mutant S389E/S390E (human) (UniProt P55010). The experiment in a line: NMR titration.
UniProt P55010, sequence (P55010 232-431 S389E/S390E): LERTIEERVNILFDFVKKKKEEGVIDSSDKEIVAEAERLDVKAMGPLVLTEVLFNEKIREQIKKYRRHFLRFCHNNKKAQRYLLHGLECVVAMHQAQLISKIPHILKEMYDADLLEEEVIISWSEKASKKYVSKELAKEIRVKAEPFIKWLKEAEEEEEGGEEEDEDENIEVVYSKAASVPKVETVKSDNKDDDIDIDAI

Take “eIF1A N-terminal tail (eIF1A-NTT) (domain or fragment)”: the % CSP reduction at E17 of eIF1A-ΔC bound to m7 turned out to be 32%, the % CSP reduction at G5 of eIF1A-ΔC bound to m7 stood at 40%, the % CSP reduction at L25 of eIF1A-ΔC bound to m7 came out at 20% and the % CSP reduction at V26 of eIF1A-ΔC bound to m7 is 24%. In addition, the % CSP reduction at W69 of eIF1A-ΔC bound to m7 turned out to be 22% and the % CSP reduction at Y83 of eIF1A-ΔC bound to m7 is 18%.

For “N-terminal tail of the β subunit of eIF2 (eIF2β-NTT) (domain or fragment)”, the % CSP reduction at E17 of eIF1A-ΔC bound to m7 came to 83%, the % CSP reduction at G5 of eIF1A-ΔC bound to m7 came out at 95%, the % CSP reduction at L25 of eIF1A-ΔC bound to m7 came to 62% and the % CSP reduction at V26 of eIF1A-ΔC bound to m7 was 38%. Also, the % CSP reduction at W69 of eIF1A-ΔC bound to m7 worked out at 63%.
